This passage reports Kd results from PMC10786891, “Massively parallel profiling of RNA-targeting CRISPR-Cas13d”.

By Kd is commonly meant the free concentration of one partner at which half of the binding sites on the other are occupied at equilibrium, for simple one-to-one binding. Low readings indicate higher affinity, high ones lower affinity.

To fix the notation:
T1: EsCas13d, nuclease-dead (Eubacterium siraeum, UniProt B0MS50, R295A;H300A;R849A;H854A)
T1 sequence: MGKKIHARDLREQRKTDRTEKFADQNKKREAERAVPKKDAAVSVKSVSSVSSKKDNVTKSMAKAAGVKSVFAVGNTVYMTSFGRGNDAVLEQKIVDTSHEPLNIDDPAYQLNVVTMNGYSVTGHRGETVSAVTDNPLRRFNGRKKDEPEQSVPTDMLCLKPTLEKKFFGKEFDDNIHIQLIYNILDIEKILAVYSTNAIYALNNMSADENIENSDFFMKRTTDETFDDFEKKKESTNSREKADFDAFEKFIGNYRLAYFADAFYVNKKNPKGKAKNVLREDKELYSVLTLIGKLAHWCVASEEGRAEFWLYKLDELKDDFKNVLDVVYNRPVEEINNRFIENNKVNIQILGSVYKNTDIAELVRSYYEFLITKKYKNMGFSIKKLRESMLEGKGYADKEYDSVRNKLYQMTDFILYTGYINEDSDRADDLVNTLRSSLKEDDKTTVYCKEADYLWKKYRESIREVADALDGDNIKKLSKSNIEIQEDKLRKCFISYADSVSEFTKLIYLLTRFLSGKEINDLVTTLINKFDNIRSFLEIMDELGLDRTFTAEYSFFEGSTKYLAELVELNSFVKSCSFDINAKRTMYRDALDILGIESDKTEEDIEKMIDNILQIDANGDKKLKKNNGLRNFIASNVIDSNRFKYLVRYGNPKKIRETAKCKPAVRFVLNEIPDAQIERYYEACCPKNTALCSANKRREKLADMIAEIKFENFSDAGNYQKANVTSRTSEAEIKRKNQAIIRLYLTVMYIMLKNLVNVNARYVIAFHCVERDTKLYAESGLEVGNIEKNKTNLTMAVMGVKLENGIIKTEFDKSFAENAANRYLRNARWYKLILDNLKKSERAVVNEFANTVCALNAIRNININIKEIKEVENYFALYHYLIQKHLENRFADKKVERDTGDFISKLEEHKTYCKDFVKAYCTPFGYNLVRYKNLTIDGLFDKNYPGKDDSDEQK

B1: target 2 MT 5'PFS GUC 3'PFS CUC (mixed)
RNA 1: CACCCGUGCAAAAUUGCAGGGGUCUAAAACCUUCUCCAAAUUGUUUCAUCCU
RNA 2: GGGAAUGGAUCCACAUCUACGAAUUCGUCAGGAUGAAACAAUUUGGAGAAGCUCAGAUCGGAAGAGCACACGU
B2: target 2 MT 5'PFS AGA 3'PFS UCG (mixed)
RNA 1: CACCCGUGCAAAAUUGCAGGGGUCUAAAACCUUCUCCAAAUUGUUUCAUCCU
RNA 2: GGGAAUGGAUCCACAUCUACGAAUUCAGAAGGAUGAAACAAUUUGGAGAAGUCGAGAUCGGAAGAGCACACGU
B3: target 2 MT 5'PFS GCA 3'PFS CUG (mixed)
RNA 1: CACCCGUGCAAAAUUGCAGGGGUCUAAAACCUUCUCCAAAUUGUUUCAUCCU
RNA 2: GGGAAUGGAUCCACAUCUACGAAUUCGCAAGGAUGAAACAAUUUGGAGAAGCUGAGAUCGGAAGAGCACACGU
B4: target 2 MT 5'PFS GUC 3'PFS CUU (mixed)
RNA 1: CACCCGUGCAAAAUUGCAGGGGUCUAAAACCUUCUCCAAAUUGUUUCAUCCU
RNA 2: GGGAAUGGAUCCACAUCUACGAAUUCGUCAGGAUGAAACAAUUUGGAGAAGCUUAGAUCGGAAGAGCACACGU
B5: target 2 MT 5'PFS ACA 3'PFS CGC (mixed)
RNA 1: CACCCGUGCAAAAUUGCAGGGGUCUAAAACCUUCUCCAAAUUGUUUCAUCCU
RNA 2: GGGAAUGGAUCCACAUCUACGAAUUCACAAGGAUGAAACAAUUUGGAGAAGCGCAGAUCGGAAGAGCACACGU
B6: target 2 MT 5'PFS AGA 3'PFS UCA (mixed)
RNA 1: CACCCGUGCAAAAUUGCAGGGGUCUAAAACCUUCUCCAAAUUGUUUCAUCCU
RNA 2: GGGAAUGGAUCCACAUCUACGAAUUCAGAAGGAUGAAACAAUUUGGAGAAGUCAAGAUCGGAAGAGCACACGU
B7: target 2 MT 5'PFS UUA 3'PFS UUA (mixed)
RNA 1: CACCCGUGCAAAAUUGCAGGGGUCUAAAACCUUCUCCAAAUUGUUUCAUCCU
RNA 2: GGGAAUGGAUCCACAUCUACGAAUUCUUAAGGAUGAAACAAUUUGGAGAAGUUAAGAUCGGAAGAGCACACGU
B8: target 2 MT 5'PFS GUC 3'PFS CUA (mixed)
RNA 1: CACCCGUGCAAAAUUGCAGGGGUCUAAAACCUUCUCCAAAUUGUUUCAUCCU
RNA 2: GGGAAUGGAUCCACAUCUACGAAUUCGUCAGGAUGAAACAAUUUGGAGAAGCUAAGAUCGGAAGAGCACACGU
B9: target 2 MT 5'PFS GCU 3'PFS UUC (mixed)
RNA 1: CACCCGUGCAAAAUUGCAGGGGUCUAAAACCUUCUCCAAAUUGUUUCAUCCU
RNA 2: GGGAAUGGAUCCACAUCUACGAAUUCGCUAGGAUGAAACAAUUUGGAGAAGUUCAGAUCGGAAGAGCACACGU
B10: target 2 MT 5'PFS ACA 3'PFS CGG (mixed)
RNA 1: CACCCGUGCAAAAUUGCAGGGGUCUAAAACCUUCUCCAAAUUGUUUCAUCCU
RNA 2: GGGAAUGGAUCCACAUCUACGAAUUCACAAGGAUGAAACAAUUUGGAGAAGCGGAGAUCGGAAGAGCACACGU
B11: target 2 MT 5'PFS CGC 3'PFS CUA (mixed)
RNA 1: CACCCGUGCAAAAUUGCAGGGGUCUAAAACCUUCUCCAAAUUGUUUCAUCCU
RNA 2: GGGAAUGGAUCCACAUCUACGAAUUCCGCAGGAUGAAACAAUUUGGAGAAGCUAAGAUCGGAAGAGCACACGU
B12: target 2 MT 5'PFS ACA 3'PFS AGG (mixed)
RNA 1: CACCCGUGCAAAAUUGCAGGGGUCUAAAACCUUCUCCAAAUUGUUUCAUCCU
RNA 2: GGGAAUGGAUCCACAUCUACGAAUUCACAAGGAUGAAACAAUUUGGAGAAGAGGAGAUCGGAAGAGCACACGU
B13: target 2 MT 5'PFS CGC 3'PFS CUG (mixed)
RNA 1: CACCCGUGCAAAAUUGCAGGGGUCUAAAACCUUCUCCAAAUUGUUUCAUCCU
RNA 2: GGGAAUGGAUCCACAUCUACGAAUUCCGCAGGAUGAAACAAUUUGGAGAAGCUGAGAUCGGAAGAGCACACGU
B14: target 2 MT 5'PFS GAC 3'PFS CCG (mixed)
RNA 1: CACCCGUGCAAAAUUGCAGGGGUCUAAAACCUUCUCCAAAUUGUUUCAUCCU
RNA 2: GGGAAUGGAUCCACAUCUACGAAUUCGACAGGAUGAAACAAUUUGGAGAAGCCGAGAUCGGAAGAGCACACGU
B15: target 2 MT 5'PFS GCA 3'PFS CUU (mixed)
RNA 1: CACCCGUGCAAAAUUGCAGGGGUCUAAAACCUUCUCCAAAUUGUUUCAUCCU
RNA 2: GGGAAUGGAUCCACAUCUACGAAUUCGCAAGGAUGAAACAAUUUGGAGAAGCUUAGAUCGGAAGAGCACACGU
B16: target 2 MT 5'PFS UUA 3'PFS UUU (mixed)
RNA 1: CACCCGUGCAAAAUUGCAGGGGUCUAAAACCUUCUCCAAAUUGUUUCAUCCU
RNA 2: GGGAAUGGAUCCACAUCUACGAAUUCUUAAGGAUGAAACAAUUUGGAGAAGUUUAGAUCGGAAGAGCACACGU
B17: target 2 MT 5'PFS AGA 3'PFS UCC (mixed)
RNA 1: CACCCGUGCAAAAUUGCAGGGGUCUAAAACCUUCUCCAAAUUGUUUCAUCCU
RNA 2: GGGAAUGGAUCCACAUCUACGAAUUCAGAAGGAUGAAACAAUUUGGAGAAGUCCAGAUCGGAAGAGCACACGU
B18: target 2 MT 5'PFS ACA 3'PFS AGA (mixed)
RNA 1: CACCCGUGCAAAAUUGCAGGGGUCUAAAACCUUCUCCAAAUUGUUUCAUCCU
RNA 2: GGGAAUGGAUCCACAUCUACGAAUUCACAAGGAUGAAACAAUUUGGAGAAGAGAAGAUCGGAAGAGCACACGU
B19: target 2 MT 5'PFS UUA 3'PFS UUG (mixed)
RNA 1: CACCCGUGCAAAAUUGCAGGGGUCUAAAACCUUCUCCAAAUUGUUUCAUCCU
RNA 2: GGGAAUGGAUCCACAUCUACGAAUUCUUAAGGAUGAAACAAUUUGGAGAAGUUGAGAUCGGAAGAGCACACGU
B20: target 2 MT 5'PFS ACA 3'PFS AGC (mixed)
RNA 1: CACCCGUGCAAAAUUGCAGGGGUCUAAAACCUUCUCCAAAUUGUUUCAUCCU
RNA 2: GGGAAUGGAUCCACAUCUACGAAUUCACAAGGAUGAAACAAUUUGGAGAAGAGCAGAUCGGAAGAGCACACGU
B21: target 2 MT 5'PFS CGC 3'PFS CUC (mixed)
RNA 1: CACCCGUGCAAAAUUGCAGGGGUCUAAAACCUUCUCCAAAUUGUUUCAUCCU
RNA 2: GGGAAUGGAUCCACAUCUACGAAUUCCGCAGGAUGAAACAAUUUGGAGAAGCUCAGAUCGGAAGAGCACACGU
B22: target 1 insC 3' of 8,insG 3' of 3 (mixed)
RNA 1: CACCCGUGCAAAAAUGCAGGGGUCUAAAACUGAGCGGAUAACCUCUCUAUGG
RNA 2: GGGAAUGGAUCCACAUCUACGAAUUCGUACCAUAGAGAGGUUAUCCCGCUGCACCGAGAUCGGAAGAGCACACGU
B23: target 1 G5C,C21U (mixed)
RNA 1: CACCCGUGCAAAAAUGCAGGGGUCUAAAACUGAGCGGAUAACCUCUCUAUGG
RNA 2: GGGAAUGGAUCCACAUCUACGAAUUCGUACUAUAGAGAGGUUAUCCCCUCACCGAGAUCGGAAGAGCACACGU

This data set addresses T1, EsCas13d, nuclease-dead. In words: crRNA (strand 1, pre-loaded); Mg2+; 40 mM Tris-HCl pH 7.5, 150 mM NaCl, 6 mM MgCl2, 1 mM DTT, 0.1% Tween-20, 0.2 mg/ml BSA; 25 C; 10 min per concentration, then washed. The following applies: tags: His6-TwinStrep-SUMO cleaved; N-terminal SNAP kept (SNAP-Surface 488); label: 3' end held by stalled T7 RNA polymerase.
As for B1, the Kd came out at 15.5 ± 2.4 nM.

Molecule B2 gave a dissociation constant Kd of 14 ± 4 nM.

B3 came in with an equilibrium dissociation constant (Kd) of 12.5 ± 2 nM.

The molecule B4 registered a Kd of 13.9 ± 1.2 nM.

In turn, B5 came in with an equilibrium dissociation constant (Kd) of 4.9 ± 0.7 nM.

B6: the dissociation constant Kd was determined as 8.2 ± 1.8 nM.

B7 showed a dissociation constant Kd of 49 ± 21 nM.

Molecule B8 returned a Kd of 11.8 ± 1.8 nM.

B9 showed a Kd of around 90 nM.

Turning to B10, the dissociation constant Kd worked out at 5.2 ± 0.9 nM.

Take B11: the Kd amounted to 7.4 ± 1.8 nM.

In turn, B12 gave a Kd of 4.9 ± 0.6 nM.

In the case of B13, the Kd came out at 8 ± 1.9 nM.

B14 came in with a Kd of 13 ± 1.5 nM.

As to B15, the affinity, expressed as Kd, was 16 ± 4 nM.

Turning to B16, the dissociation constant (Kd) was around 70 nM.

In the case of B17, binding was characterised by a dissociation constant (Kd) of 43 ± 15 nM.

On to B18, for which the dissociation constant (Kd) was found to be 3.6 ± 1.3 nM.

B19: the Kd was 19.3 ± 2.8 nM.

The molecule B20 displayed a Kd of 4.7 ± 1.1 nM.

For the molecule B21, the Kd is 9.6 ± 1.7 nM.

Take B22: the affinity, expressed as Kd, was 9.8 ± 0.4 nM.

In the case of B23, the Kd came to 7.1 ± 0.4 nM.
